Measured values: patent US20060078875A1, “Genetic selection of small molecule modulators of protein-protein interactions” (The Penn State Research Foundation, priority 2004, published 2006)
Ends that are not written are not given here.

How the values were obtained:
[1] = target: T1, ribonucleotide reductase large subunit (mR1) (Mus musculus, UniProt P07742); assay: Immobilized peptide binding/competition ELISA with mR1; design: species or system murine; conditions: P8 immobilized on maleimide plates
T1 construct: made in house; host or cells: E. coli BL21(λDE3) Rosetta, pET28a-MR1
T1 sequence (P07742 1-792): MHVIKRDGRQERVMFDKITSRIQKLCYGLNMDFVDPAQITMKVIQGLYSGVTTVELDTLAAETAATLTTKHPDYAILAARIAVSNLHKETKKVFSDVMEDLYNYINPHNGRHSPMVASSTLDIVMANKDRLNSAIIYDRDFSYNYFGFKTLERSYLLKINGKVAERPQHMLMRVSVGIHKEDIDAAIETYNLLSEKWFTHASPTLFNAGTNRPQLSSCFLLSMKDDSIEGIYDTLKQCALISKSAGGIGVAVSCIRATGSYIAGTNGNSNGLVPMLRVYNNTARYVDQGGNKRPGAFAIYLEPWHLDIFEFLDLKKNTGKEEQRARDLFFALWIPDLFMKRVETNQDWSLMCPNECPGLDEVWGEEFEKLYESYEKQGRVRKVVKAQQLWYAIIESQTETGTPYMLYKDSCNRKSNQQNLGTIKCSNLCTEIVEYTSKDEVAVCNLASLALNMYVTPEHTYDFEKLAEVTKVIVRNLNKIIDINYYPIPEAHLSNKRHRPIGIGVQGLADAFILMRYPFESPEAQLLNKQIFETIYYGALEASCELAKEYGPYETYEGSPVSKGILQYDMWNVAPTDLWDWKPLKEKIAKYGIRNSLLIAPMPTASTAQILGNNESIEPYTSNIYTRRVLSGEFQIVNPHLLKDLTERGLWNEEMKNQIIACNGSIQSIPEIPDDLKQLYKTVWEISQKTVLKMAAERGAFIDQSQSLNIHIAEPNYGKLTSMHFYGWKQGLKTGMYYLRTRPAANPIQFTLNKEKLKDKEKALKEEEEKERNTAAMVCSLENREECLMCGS
Description: (§1) FIG. 8B provides the results of an immobilized P8 ELISA.
(§2) Two variations of solid phase binding assays were used for analyzing the binding of peptide inhibitors to ribonucleotide reductase subunits: i) protein competition ELISA where peptides were competing with mR1 for binding to immobilized mR2, ii) binding and competition ELISA with covalently immobilized ligands. In general, the solid phase assays were performed in microtiter plates (MaxiSorp, Nunc) or strip units (Reacti-Bind™ Maleimide Activated Clear Strip Plates, Pierce) involving continuous agitation in Junior Orbit Shaker (Lab-line Instruments) at medium speed during all of the incubation steps. Sample volumes were 100 μL, unless specified otherwise. Following coating, blocking step was conducted by incubating pre-loaded wells with 5% bovine serum albumin in PBS for 1 h at room temperature. Wash procedures between any two successive incubations involved three washes with 200 μL of 0.5% Tween-20 in PBS (PBST), with the second wash involving a 5 min incubation. Detection of His-tagged proteins was performed with Ni·NTA-HRP conjugate (Qiagen) according to the manufacturer instructions.
(§3) Peptides (200 nmol per well) in 10% DMF/50 mM Tris·HCl (pH 7.5) with 1 mM TCEP were reacted for 2 h at room temperature with maleimide-derivatized polystyrene wells. The unreacted sites were blocked by incubating wells with 5 μM cysteine in 50 mM Tris·HCl (pH 7.5) for 30 min. Following washing and blocking steps, the wells were incubated with His-tagged mR1 or mR2 in the presence or absence of inhibitors. The retained protein was detected via Ni·NTA-HRP conjugate.
(§4) To determine the mechanism of action of the four identified sequences an alternative assay format was devised (FIG. 8A), where a peptide with a residual activity in its immobilized form can serve as a specific ligand for receptor capture in both binding and competition ELISA. The success of such an assay relies on both efficient peptide immobilization strategy and sufficient level of affinity, uncompromised by this display strategy. The peptide immobilization becomes feasible through implementation of a cysteine, a nucleophile used in splicing, as a universal chemoselective handle allowing covalent attachment strategy through a suitable electrophile. Chemoselective attachment of such peptides on appropriately derivatized surfaces should both display the small molecules for detection with a suitable protein receptor and allow binding site competition analysis, not unlike in a traditional immunosorbent format.

ribonucleotide reductase = target: T2, ribonucleotide reductase (Mus musculus, UniProt P07742+P11157); assay: RTHS β-galactosidase (lacZ) assay, ribonucleotide reductase fusion in strain SNS126; assay type: cell-based, murine; conditions: for Effect on the lacZ reporter upon arabinose induction: arabinose induction of peptide expression; for Effect on the lacZ reporter upon arabinose induction / lacZ repression relief: 100 μM IPTG; for lacZ repression relief: background level of peptide expression
T2 construct: expressed in transfected cells; host or cells: E. coli strain SNS126 (integrated via pAH68)
T2 sequence (P07742 1-792): T1 sequence (P07742 1-792)
T2 sequence (P11157 1-390): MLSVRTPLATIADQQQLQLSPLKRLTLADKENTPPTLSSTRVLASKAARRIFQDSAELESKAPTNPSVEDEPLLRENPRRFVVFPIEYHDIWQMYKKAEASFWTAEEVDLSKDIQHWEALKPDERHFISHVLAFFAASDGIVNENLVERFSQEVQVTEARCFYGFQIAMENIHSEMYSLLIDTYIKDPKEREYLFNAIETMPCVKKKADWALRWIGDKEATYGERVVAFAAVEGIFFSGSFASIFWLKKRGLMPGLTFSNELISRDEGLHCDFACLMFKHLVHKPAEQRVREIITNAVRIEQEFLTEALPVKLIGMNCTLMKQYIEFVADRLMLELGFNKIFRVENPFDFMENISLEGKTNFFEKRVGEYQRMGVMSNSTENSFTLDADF
Text: FIG. 4 has two graphs (A and B) of β-galactosidase assays showing the effect of linear peptide inhibitors on the oligomeric state of HIV-1 protease and ribonucleotide reductase.
Positive (unrepressed strain) and negative (SICLOPPS control plasmid) controls are provided as reference points. […] FIG. 7C is a graph of competition ELISA results that compare the binding affinity of the four linear peptides with P8 control. FIG. 7D illustrates an exemplary solid phase synthesis of cyclic peptides. First, an activated disulfide resin is prepared through the protection of the thiol group of 3-mercaptopropionic acid, followed by coupling to an amino-PEGA resin. Next, a linear peptide is attached via a cysteine residue and cyclized with 1-ethyl-3-(3′-dimethylaminopropyl)carbodiimide (EDC) and 1-hydroxy-7-azabenzotriazole (HOAt) in DMF. Finally, reductive cleavage with tris-2-carboxyethylphosphine (TCEP) releases the cyclized peptide.
pTHCP30. […] ribonucleotide reductase subunit R1 was PCR amplified from a Bacuolovirus expression plasmid [Caras et al. (1985) J. Biol. Chem. 260:7015-7022] and cloned into SalI and SacI sites on pTHCP14, and subunit R2 was PCR amplified from pET3a-R2 and cloned onto pTHCP14-R1 plasmid at XhoI and KpnI sites [Mann et al. (1991) Biochemistry 30:1939-1947].
Overlapping oligonucleotides encoding […] (methionine plus eight R2 subunit C-terminal residues) (SEQ ID:15) were cloned into NcoI and XbaI sites on arabinose expression plasmid pAR [Perez-Perez et al. (1995) Gene 158:141-142].
Towards this goal, both enzyme complexes were probed with known linear peptidic inhibitors. These peptides are a C-terminal hexapeptide (FIG. 4A, pHIV16) for HIV protease that inhibits the essential β-sheet interactions [Schramm al. (1996) Antiviral Res. 30:155-170], and a heptapeptide for ribonucleotide reductase (pTHCP35, FIG. 4B) that competes with binding between subunits mR1 and mR2 [Yang et al. (1990) FEBS Lett. 272:61-64].
To address non-specific effects of selectants on host growth rates, three of the selective peptides (RR93, RR127, RR130) and the less discriminating RR133 were subjected to quantitative expression studies using the lacZ reporter of the RTHS. […] These studies necessitated in vitro analysis to decipher the inhibition mechanism of these four selectants.

[2] = target: T3, ribonucleotide reductase small subunit (mR2) (Mus musculus, UniProt P11157); assay: Immobilized c-RR130 binding/competition ELISA with mR2; design: species or system murine; conditions: data not shown
T3 construct: made in house; host or cells: E. coli BL21(λDE3), pET28a-MR2
T3 sequence (P11157 1-390): T2 sequence (P11157 1-390)
Description: as §1, §2, §3, §4

ATIC homodimer = target: T4, ATIC homodimer (Gallus gallus, UniProt P31335); assay: ATIC RTHS ranking by spotting serial dilutions on selective media; assay type: cell-based; conditions: cyclic peptides in order of biological activity (1 = most active)
T4 construct: expressed in transfected cells; host or cells: E. coli RTHS strain with the ATIC fusion integrated on the chromosome
T4 sequence (P31335 1-593): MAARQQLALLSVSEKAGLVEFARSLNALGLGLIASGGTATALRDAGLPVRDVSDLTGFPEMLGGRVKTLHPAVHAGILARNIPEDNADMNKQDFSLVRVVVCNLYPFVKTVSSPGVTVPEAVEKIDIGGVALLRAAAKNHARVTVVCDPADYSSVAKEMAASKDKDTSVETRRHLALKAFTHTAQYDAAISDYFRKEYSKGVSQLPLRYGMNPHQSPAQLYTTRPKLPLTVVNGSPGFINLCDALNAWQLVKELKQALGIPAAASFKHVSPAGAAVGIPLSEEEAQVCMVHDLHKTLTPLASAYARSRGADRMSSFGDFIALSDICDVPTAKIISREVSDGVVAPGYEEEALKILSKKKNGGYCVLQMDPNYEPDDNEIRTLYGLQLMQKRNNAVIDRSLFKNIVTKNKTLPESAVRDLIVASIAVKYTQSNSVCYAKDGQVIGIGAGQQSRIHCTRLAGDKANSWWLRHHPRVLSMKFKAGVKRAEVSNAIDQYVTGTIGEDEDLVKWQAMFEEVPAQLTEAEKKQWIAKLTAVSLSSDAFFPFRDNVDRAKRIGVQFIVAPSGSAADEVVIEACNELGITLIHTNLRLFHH
Description: ATIC was cloned as a fusion with the bacteriophage 434 repressor DNA binding domain (into pTHCP16, FIG. 1B) such that expression of the repressor-ATIC fusion placed under control of an isopropyl β-D-thiogalactoside (IPTG) inducible promoter. […] In order to improve selection conditions, a new RTHS strain was constructed by integrating the ATIC fusion onto the chromosome. The level of IPTG giving optimal repression was determined to be 50 μM by β-galactosidase assays.
The first SICLOPPS library transformed into the selection strain encoded a hexapeptide with five random residues and a cysteine nucleophile. Approximately 10^7 transformants were plated onto histidine-free minimal media supplemented with arabinose, (inducer for SICLOPPS) 3-amino-1,2,4-triazole (3-AT, competitive inhibitor of HIS3 product) and kanamycin at a density of 10^6 per plate (100×15 mm). The plates were incubated until colonies were readily visible (approximately one in 10^5). A second library encoding an octapeptide with five random residues and an invariable SGW motif was also tested (not shown). Around 200 colonies were picked and screened for arabinose dependent growth advantage and IPTG dependent inhibition of growth to eliminate false positives. The expected phenotype was further confirmed by isolating and retransforming the selected SICLOPPS plasmids into the selection strain. The 14 remaining cyclic peptides were then ranked for activity by spotting serial dilutions of the corresponding cells onto selective media, allowing the conferred growth advantage to be compared at each dilution level.
SICLOPPS libraries were transformed into E. coli strains containing integrated reporter and repressor constructs. Transformants were washed with minimal media A and plated on minimal media A supplemented with 13 μM L-(+)-arabinose, 2.5 mM 3-amino-1,2,4-triazole, 25 μM kanamycin and 50 μM IPTG. After incubation at 37° C. for 3-4 days, surviving colonies were restreaked onto the same media with and without arabinose. Plasmids from selected strains whose growth depended on the presence of arabinose were retransformed into the original selection strain and checked for phenotype retention. The variable insert regions on SICLOPPS plasmids were PCR-amplified, and their DNA sequence determined.

avian ATIC (AICAR Tfase) = target: T5, avian ATIC (AICAR Tfase) (Gallus gallus, UniProt P31335); assay: AICAR Tfase assay
T5 sequence (P31335 1-593): T4 sequence (P31335 1-593)
Description: All assays were performed using a Varian Cary 100 Spectrometer. All reaction mixtures were 500 μl in volume and carried out in 1 cm pathlength quartz cuvettes at 25° C. The enzyme used in all of the inhibition studies was avian ATIC, fused to a N-terminal 6× histidine tag to facilitate purification. […] The peptides were dissolved in DMSO to a final concentration of 2.5 mM.
84 nM of ATIC, 50 μM of 10-f-THF and various quantities of inhibitor were mixed in the assay buffer (32.5 mM Tris-HCl, 25 mM KCl, pH 7.4). The mixture was incubated at 25° C. for 2 min before initiating the reaction by addition of 20 μM AICAR. The reaction was monitored by measuring the increase in absorbance due to formation of tetrahydrofolate at 298 nm.
The peptides were assumed to be competing with f-10-THF, which binds to ATIC and stabilizes its dimerization.

GVRFF (cyclic, SICLOPPS-expressed; Ribonucleotide reductase inhibitor peptide) [RR127]
Disruption of / competition with immobilized P8·mR1 complex [1]: none | Effect on the lacZ reporter upon arabinose induction (ribonucleotide reductase): further enhanced | lacZ repression relief (ribonucleotide reductase): observable repression relief | Competition with the c-RR130·mR2 complex [2]: competed

HRYVF (cyclic, SICLOPPS-expressed; Ribonucleotide reductase inhibitor peptide) [RR133]
Disruption of / competition with immobilized P8·mR1 complex [1]: none | Effect on the lacZ reporter upon arabinose induction (ribonucleotide reductase): further enhanced | lacZ repression relief (ribonucleotide reductase): observable repression relief | Competition with the c-RR130·mR2 complex [2]: competed

M L L I V C (MLLIVC) [c-25]
Activity Rank (ATIC homodimer): 3

MSFTLDADF [pTHCP35, reference compound]
Repression of the lacZ reporter (ribonucleotide reductase; peptide co-expressed with ribonucleotide reductase fusion): relieved repression

P V L L L C (PVLLLC) [c-26]
Activity Rank (ATIC homodimer): 3

R F F I C C (RFFICC; also: cyclic peptide, ring type not given here) [c-4]
Activity Rank (ATIC homodimer): 2

R I L Q L C (RILQLC) [c-8]
Activity Rank (ATIC homodimer): 2

R I L V L C (RILVLC) [c-5]
Activity Rank (ATIC homodimer): 3

RYFNVC [l-1a, RYFNVC]
Ki (avian ATIC (AICAR Tfase)): 142 ± 22.5 µM

RYYNV (cyclo(RYYNV); not fully specified) [RR130]
Disruption of / competition with immobilized P8·mR1 complex [1]: none | Effect on the lacZ reporter upon arabinose induction (ribonucleotide reductase): arabinose-dependent repression | lacZ repression relief (ribonucleotide reductase): observable repression relief | Competition with the c-RR130·mR2 complex [2]: competed

S M M V L C (SMMVLC) [c-15]
Activity Rank (ATIC homodimer): 3

T V L M F C (TVLMFC) [c-6]
Activity Rank (ATIC homodimer): 3

WMFLNVSG [l-151]
Ki (avian ATIC (AICAR Tfase)): 173 ± 28.4 µM

YTWSY (cyclo(YTWSY); not fully specified) [RR93]
Effect on the lacZ reporter upon arabinose induction (ribonucleotide reductase): further enhanced | lacZ repression relief (ribonucleotide reductase): observable repression relief
